US20210115087A1 (UNIVERSITY OF ROCHESTER, published 2021)
*1 amine or outer side, *2 acyl side, *3 side chain or, on linkers, in order; H or OH if unused. Bridges are numbered along the chain shown (N, C = ends). Where no end group is shown, it is not given here. [ ]: non-standard residue; d: D form. The star is where a group is joined. O2beY = O-alkylated Tyr from O-2-bromoethyl-tyrosine, O-CH2CH2- thioether-linked to Cys, O=C([C@H](Cc1ccc(OCC[*:3])cc1)N[*:1])[*:2]; L‑5 = linker -CH2S(CH2)2SCH2-, C(CSC[*:2])SC[*:1]; Biotin = O=C1N[C@H]2[C@H](CS[C@H]2CCCCC(=O)*)N1; L‑9 = linker -CH2SCH2CH=CHCH2SCH2-; L‑6 = linker -CH2S(CH2)3SCH2-; L‑4 = linker -CH2SCH2SCH2-

B1: BIOT-M5-S7 (as labelled in the KD table of Example 5) (peptide)
peptide: GSGSTLSWCEAMDMCTD
modifications: N-terminal biotin; Cys5 and Cys11 crosslinked, by the printed MW 2121.41 with one of the isomeric linkers L-10, L-11, L-12 (drawings; probably L-11); C-terminal amide
notes: it fits the xylene-type linkers
B2: BIOT-M5-S5 (as labelled in the KD table of Example 5) (peptide)
peptide: Biotin-GSGSTLSWCEAMDMCTD-NH2
modifications: linker 9-15 via L‑9
B3: FLAG-HL2-pep (peptide)
peptide: MDYKDDDDKGSGSTLDDMEEMDGLSD
notes: also called linear L2-derived peptide
B4: Biot-m5-s1 (peptide)
peptide: Biotin-GSGSTLSWCEAMDMCTD-NH2
modifications: disulfide 9-15
B5: FLAG-HL2-m5 (peptide)
peptide: MDYKDDDDKGSGSTLSW[O2beY]EAMDMCTD-OH
modifications: bridge 18-24; not fully specified (bridges)
B6: Biot-m5-s3 (peptide)
peptide: Biotin-GSGSTLSWCEAMDMCTD-NH2
modifications: linker 9-15 via L‑5
B7: Biot-m5-s2 (peptide)
peptide: Biotin-GSGSTLSWCEAMDMCTD-NH2
modifications: linker 9-15 via L‑4
B8: Biot-m5-s4 (peptide)
peptide: Biotin-GSGSTLSWCEAMDMCTD-NH2
modifications: linker 9-15 via L‑6

Experiments:
[1] = target: T1, GST-Shh (recombinant GST-fused human Sonic Hedgehog) (human, UniProt Q15465 24-197); assay: plate assay: immobilized GST-Shh, biotinylated peptide, HRP-streptavidin
T1 construct: Expressed in E. coli BL21(DE3), Ni-NTA purified, immobilized on microtiter plates; also called GST-fused Shh; not shown: glutathione-S-transferase (GST) containing a poly-histidine tag, from expression vector pET42b (Novagen); N-terminal fus
Method: (§1) Hh protein binding assay. Shh binding activity/affinity of the linear and cyclic peptides was measured using the immunoassay outlined in FIG. 4. For these experiments, GST-Shh was immobilized on 96-well microtiter plates (100 μL of 4 μM GST-Shh solution in PBS buffer), followed by blocking with bovine serum albumin. After washing, each well was incubated with 100 μL of purified FLAG-fused peptide at varying concentrations for 1 hour at room temperature. After washing, each well was added with 100 μL of 1:2500 dilution of HRP-conjugate mouse anti-FLAG polyclonal antibody (Sigma-Aldrich) for 1 hour at room temperature. After washing, 100 μL of 2.2 mM o-phenylenediamine dihydrochloride, 4.2 mM urea hydrogen peroxide, 100 mM dibasic sodium phosphate and 50 mM sodium citrate, pH 5.0 was added to each well, followed by measurement of the absorbance at 450 nm using a Tecan Infinite 1000 plate reader. Equilibrium dissociation constants (KD) were determined by fitting the dose-response curves (FIG. 5) to a 1:1 binding isotherm equation via non-linear regression using SigmaPlot.
For assessing the Shh binding affinity of the cysteine-crosslinked peptides described in Example 4, biotinylated variants of these peptides were prepared by introducing a biotin moiety to the N-terminal peptide of the peptide followed by a tetrapeptide (Gly-Ser-Gly-Ser) (SEQ ID NO: 72) spacer (i.e., peptides Biot-m5-s1 through Biot-m5-s10). The biotinylated peptides were tested in a modified variant of the Shh binding assay described in Example 1, where HRP-conjugated streptavidin is used instead of the HRP-conjugated anti-FLAG antibody.

[2] = target: T1, GST-Shh (recombinant GST-fused human …); assay: plate immunoassay: immobilized GST-Shh, FLAG-tagged peptide titrated, HRP anti-FLAG antibody, A450
Method: To measure the binding affinity of the peptides for Shh, an in vitro assay was established in which recombinant GST-fused Shh is immobilized on microtiter plates and then exposed to the FLAG-tagged peptide at varying concentrations. The Shh-bound peptide is then quantified colorimetrically (λ₄₅₀) using a horseradish peroxidase (HRP)-conjugated anti-FLAG antibody.
as §1, with “After washing, each well was added with 100 μL of 1:2500 dilution of HRP-conjugate mouse anti-FLAG polyclonal antibody (Sigma-Aldrich) for 1 hour at room temperature.” left out

[3] = target: T1, GST-Shh (recombinant GST-fused human …); assay: plate immunoassay: immobilized GST-Shh, HRP anti-FLAG antibody
Method: as §1
(§2) Next, all of the yet unmodified positions within the HL2-m3 sequence (relative to HL2-m1) were randomized by site-saturation mutagenesis. These positions correspond to residue Thr1, Leu2, Asp3, Glu6, Glu7, Met8, Asp12 of the HL2-m3 sequence. […]

[4] = target: T2, GST-Dhh (recombinant GST-fused human Desert Hedgehog) (human, UniProt O43323 23-198); assay: plate immunoassay: immobilized GST-Dhh against GST-Shh, HRP anti-FLAG antibody
T2 construct: not shown: glutathione-S-transferase (GST) containing a poly-histidine tag, from expression vector pET42b (Novagen); N-terminal fus
Method: as §1
Hedgehog analog selectivity. KD values for FLAG-HL2-m5 binding to Ihh and Dhh were determined using the colorimetric immunoassay described earlier but using GST-Ihh and GST-Dhh-coated plates, respectively. […] Mean values and standard deviations were calculated from experiments performed at least in triplicate.

[5] = target: T1, GST-Shh (recombinant GST-fused human …); assay: plate immunoassay: immobilized GST-Shh, purified FLAG-tagged peptide titrated, HRP anti-FLAG antibody
Method: as §1, §2

Binder	Kd [1] [µM]	also measured
B1	9.2	–
B2	1.1	–
B3	–	Kd [2]: 20 µM
B4	1.7	–
B5	–	fold higher binding affinity for Shh compared to FLAG-HL2-pep [3]: ~120 fold; fold lower affinity than for Shh [4]: 2 fold; Kd [5]: 0.17 µM
B6	5.9	–
B7	3.4	–
B8	6.4	–
